This note sets out measurements from PMC4070327.

As usually defined, the koff is the first-order rate constant of dissociation.

This experiment addresses TF^SBD-PPD (substrate-binding domain plus peptidyl prolyl isomerase domain of E. coli TF) (E. coli) (UniProt P0A850). Nature of the experiment: NMR relaxation dispersion.

Sequence of PhoA^d-e (PhoA fragment with TF-binding sites d and e) (P00634 220-310): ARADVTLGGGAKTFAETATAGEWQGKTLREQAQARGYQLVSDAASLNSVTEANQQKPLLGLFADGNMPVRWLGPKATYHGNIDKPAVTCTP

“PhoA^a-c (PhoA fragment with TF-binding sites a to c) (from UniProt P00634 1-150) (domain or fragment)”: the koff is 50 s⁻¹ and the residence time (1/koff) is 20 ms.
Turning to “PhoA^d-e (PhoA fragment with TF-binding sites d and e) (from UniProt P00634 220-310) (domain or fragment)”, the residence time (1/koff) amounted to 20 ms.
